In the supplement of paper PMC12042874:
± gives the uncertainty stated by the source.

Test: amyloid nucleation score (Sup35N fusion, yeast selection) (log enrichment); library NNK1; higher = more nucleation; inactive = no reads after selection
Summary of the method: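 Using DiMSum, nucleation scores were taken as the log enrichment of output over input reads, centred on the mode score of non-aggregating sequences. The input and output reads came from Illumina sequencing of plasmid inserts, with sequences under 100 input reads excluded. The yeast were psi-negative, expressed Sup35N fused to peptides of 20 random codons, were induced with 100 μM copper sulfate for 24 hours, and were grown 7 days at 30°C on medium lacking adenine and uracil.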

Substance | amyloid nucleation score
KLSVGYRFWVLDSDFIVDDY | 0.16 ± 0.23
YSWTVAKIFTYFSVQLSIFR | -0.396 ± 0.33
SWQSVSSAISV | -0.234 ± 0.85
FRGRDSCGHH | 0.101 ± 0.44
TVMFCRQWVFNCVFFIDIVK | 1.31 ± 0.1
IITCRSASETMWFSCFDGLA | 2.95 ± 0.17
FRICYCWFGGEKDHRNFQIG | 3.86 ± 0.06
KGMYISWIVAVCS | 0.411 ± 0.3
NEVMRFLSTCCMWIIHTSKV | inactive
FSREYL | -0.251 ± 0.3
RYVTDSGVGSIPRYLIKCSR | -0.111 ± 0.42
YVSDFKADTATLSSDLCQLA | -0.183 ± 0.73
NGYYRLSWIKWVQKDGRVRR | 0.598 ± 1
MSEENSTNIIYSIVPKSL | inactive
MLLIRNFQFTTLFVCHFSAE | -0.038 ± 0.16
FKSVFVRTIHATYIVSWAN | -0.413 ± 1.5
TYSSARDSS | -0.209 ± 0.63
FSYNVVLRFSLRISSNYFAS | -1.12 ± 0.86
FEDGTCALR | -0.059 ± 0.62
IYRDGIGTDIWFRGSICKCL | 0.704 ± 0.61
YWFDYINPLMRSFAHATAIS | 0.74 ± 0.9
STIMMF | 0.289 ± 0.52
TYRLH | -0.57 ± 0.55
RDNFEMFSPAAKYALFASGT | inactive
VSNTSLYPDKESMLRGTEWE | 0.674 ± 0.77

Substance | amyloid nucleation score
GRGTRLYVRRQW | 0.39 ± 0.28
LMYSVS | 0.434 ± 0.38
CFLETMDFGH | -0.472 ± 1.2
ISCRFAMVLGLKSWILTYV | inactive
FSGLDYNVYVNLVPYFLCIN | 6.34 ± 0.077
DMNDYSK | -0.592 ± 0.39
KSYVCGTLTFRLGSVHCVNM | 7.025 ± 0.057
MIDRRKSLVEGRGRNCVSGC | -0.646 ± 1.1
RLFHFWQSDGLVGSTKRVDY | 0.128 ± 0.42
YPSDLLDIWDDWICWCWELN | 0.225 ± 0.53
FKKSNLPSIVWRCDAWLGSS | 0.334 ± 0.3
FDVYFSVPFFTLLYNDPKWF | 2.35 ± 0.12
NTVIVPHLIILLDYSKVWAE | 3.28 ± 0.069
ELYSDHIMTWM | 0.69 ± 0.36
GCTGPHFVYTDGRMHWSGSS | -0.529 ± 0.49
FDMCSGISGD | 0.839 ± 0.36
EDCIMGNWNLCSKGSSGF | 0.374 ± 0.3
LCRFSAEDHCYADCTVDHCC | -0.244 ± 0.66
MSDLLSVVN | 0.142 ± 0.81
FWRKENGYWLGFMPLVREGT | 0.247 ± 0.35
EKTYSCHECFFIWPRSY | -1.09 ± 0.75
MGVVQCAKRQQRLLMQLTVL | 0.054 ± 0.93
ICNPGVS | 0.71 ± 0.8
GWVMLTCIRNAGVNLRPGSR | 1.58 ± 0.53
HTVNLAPRNPDPPS | 0.259 ± 0.77

Substance | amyloid nucleation score
KGFFNAITGDKIPRPSRDRR | 0.174 ± 0.48
HFGDGILLI | -1.21 ± 1.7
SVLVWADLCHDTEA | 0.42 ± 0.84
YNELKFRGYYNRCLECGFVR | 0.495 ± 0.91
CVHAHTTHITSCRARPSTEA | 0.435 ± 0.28
FLSGYGSCLELANVIRWLEN | 1.19 ± 0.69
DLKALCCDRMKVLGFVRSPG | 1.18 ± 0.42
STLDLLCYFRREADQTINKR | 0.336 ± 0.36
WLWINPMEVDYGVLTRLEKT | -0.213 ± 0.26
LMNFSNWDELR | -1.26 ± 2.4
SKWLIRGCL | 1.6 ± 0.21
DSRNTDFTCYFEIYYCCVNL | 8.069 ± 0.063
FNAVATKSVNRGRSLLDVTQ | 0.62 ± 0.8
DNRIIWLRGTMS | 0.853 ± 0.92
QTRWACTTQCGCKCFFE | 1.53 ± 0.15
YSGVLFSTAVEYGGRGLVHE | inactive
LDCHD | -0.246 ± 0.44
KHVGWSYG | 0.779 ± 0.48
YRRNIIL | -0.368 ± 0.4
FRGWV | 1.62 ± 0.12
RWQAFGTELYGTSWSFREYG | 0.148 ± 0.47
MSLSFAPLAIYPDNIVTDVI | -0.329 ± 0.7
VHYWLVNSSTKRGRPFASAF | -0.231 ± 0.36
EPCMWKVILYCEYVSLVFVK | -0.974 ± 1.9
WWGRGVLVWYGCRAKVWTS | 0.012 ± 1.6

Substance | amyloid nucleation score
GRFSVVAISHKQTFNFDWRT | 8.058 ± 0.072
IQPLIWANYFVIGARV | 3.66 ± 0.1
SSFSVVFDSHVSS | 0.382 ± 1.4
HPALKWLCPGIERLCLAWSG | 0.818 ± 0.61
VCNQWGDHA | -1.08 ± 1.7
CSNDLECFCDFNCRL | -0.033 ± 0.39
VSLCAQRYVIMMSIVRTKSL | 0.105 ± 0.22
YTVRLM | 0.125 ± 0.61
EINCHSSMGFMRWPPRSGNG | -0.962 ± 1
LNCPFYIFFLLHTVSA | 6.608 ± 0.065
CVRRLRVLCTFLLVTLLYCI | 1.67 ± 0.29
MRGFHSQRHSIAECVAIQKG | 0.359 ± 0.37
WENTSRKYVAANDCARMRLG | -0.281 ± 0.41
SNEYLCYYMSTNA | -0.345 ± 0.39
SCGNNYTSV | -0.236 ± 0.2
AIFVCNH | 0.229 ± 0.5
WALISYGVWGTRTADLCRCH | 0.907 ± 0.65
NLSIYIYSNNLLLNVF | 6.194 ± 0.052
TVLYPGPGAVS | 0.155 ± 0.73
KGSSAMPL | inactive
GTFAWGHRFYVIAAYFILYD | inactive
FFLMQYILYYKKQSDMFVSL | -0.912 ± 1.7
VRFFM | -0.422 ± 0.45
FLVLND | 0.273 ± 0.2
IRRSHSEVPVVA | 0.22 ± 0.37

Substance | amyloid nucleation score
MKLMKPGTLSSWCFFDSSGV | 0.016 ± 0.51
TRQRKDGYADRMQYNSPLRR | 0.342 ± 0.6
ISGMRGFILLGRRVFTKVSS | -0.277 ± 0.33
TVSIGDVTRFVMAVASTTF | 0.18 ± 1.1
VETIRQINVHVSGVDIHFWD | 6.872 ± 0.045
YRTNRKEHSYVLLYARRPSQ | 0.56 ± 0.72
AVASMWPRGLALSRLVSLNA | 0.05 ± 0.47
GNSRQYAFNRQIHMSSGESR | -0.535 ± 0.66
AIDIYGYLRFPCWLRVLFT | -1.06 ± 0.45
WFWELGN | 0.201 ± 0.28
WSTQSLCFGPT | 0.012 ± 0.63
TGEPKRS | 1.58 ± 0.49
SRNLGMYHMYFKFPWCMNPM | -0.15 ± 0.46
FVRSFYSDKLWQIFGWVVGS | -0.753 ± 0.51
YQKDWFDMHEYYRPM | 1.42 ± 0.64
YANCL | 0.517 ± 0.44
GLWQWAIHLRWIGIEHTQTR | 0.295 ± 0.97
CHHSYCMITPLTVSTARNGW | 0.749 ± 0.35
YYVFITIYVVSLVCNLSCYF | -0.573 ± 0.74
FRLMVPGVCRRLANGLRMIW | -0.3 ± 0.35
NWRFGLYSHIGIWLMVKS | 1.86 ± 0.38
MREGFTLFVDKDCNAGTYTW | inactive
AVPCSC | 0.189 ± 0.3
HGNCWSPTRAVRQYGVNAPM | 0.81 ± 0.36
FCEDKNRRSSPSIWQNNCKM | 0.829 ± 0.16

Substance | amyloid nucleation score
PSTTLFWLVMRKHILQHTRR | -0.215 ± 0.28
YLSYDT | -0.411 ± 0.36
LTKISQLKRCDHKMRKSVSN | 0.517 ± 0.26
DYLLFSVQGNYESWYNGCKF | -2.05 ± 2.4
ACETWVVAIDMVSRSPCRCC | 0.113 ± 0.97
ALRGMWNKVRSGGWCYRCTW | -0.05 ± 1.4
YLNERE | -1.16 ± 1
CSLILALPN | 0.951 ± 0.6
IMRSMSGWFGFVMLFDAS | -0.598 ± 0.79
LSGTNASIWY | -0.212 ± 0.35
IWVHHRSVTKSWLKMVAWNH | -0.514 ± 0.43
GSSDPHVLVN | 0.341 ± 0.26
YQYNATFFPSITRTNLETKG | 0.337 ± 0.49
VGYHFMYSMSAFVASWRSWG | -0.482 ± 0.88
DKNGIPYISCEYNQM | -0.46 ± 0.72
IWCSVNEWQYRVKVV | 0.03 ± 0.5
GFYGRICL | 0.101 ± 0.46
CLDVGHIFLGKVEWTGEPW | -0.375 ± 0.64
YGYRSRSLSFCLD | inactive
SVPITLIGALGVKM | 0.177 ± 0.57
FADNWLCKIRYSCGISLSKY | -0.739 ± 0.39
LVVFATSVGSGGFKVWGHPG | 0.041 ± 0.45
SHLLLHSLWSDPGIIVDLYT | inactive
TSASVGLVMWTTWMRNQG | 3.75 ± 0.087
GLGGYT | -0.155 ± 0.49

Substance | amyloid nucleation score
MQGDRQDGLYNKGDYPQFIF | -0.267 ± 0.39
NMVSCGDALR | -0.554 ± 1.7
NCTRWTLNTDVCSLDRHVPH | -0.5 ± 2.1
MIRFKQT | -0.651 ± 0.45
CLCARML | 0.542 ± 0.67
VMLMCYPLTRPRCGTERNMF | 0.091 ± 0.49
FRHVQSMRACFLKSKYGATI | 0.195 ± 0.84
DCVKGHSECCRPSKLVKYWR | inactive
HESGRRAIYS | -0.019 ± 0.29
LALKYPSLISPKRWT | 0.688 ± 0.36
GTDRSLAVIFKARCWFWATR | -1.14 ± 1.7
FPNLHLTELCLGRIYVRACY | inactive
TIECFYGVVSFRHNQYYGAQ | 2.16 ± 0.17
FVGIQHRMSYWLCGRHAIVI | 0.965 ± 0.71
GFTDYNRVRYKVLTVVFDYG | -1.51 ± 0.95
HSSAEIMPGHISGTWGLCDK | -0.62 ± 0.87
DLHWILNHTNGACFQWGQPA | inactive
TDIHTVHRSNLVKVLRKGMN | -0.411 ± 0.53
TMTVSFPRLEKCTSK | 0.169 ± 0.35
CMLSCFSDRAWIMQRSVCAC | 0.879 ± 0.65
EDTWVLLSHYHFNSMLSLLM | 0.161 ± 0.26
LVWGFFSHRM | 2.37 ± 0.14
YYVGSYTL | inactive
HSKGYMARHDRAYGDSERVV | 0.303 ± 0.77
